These are literature values, as cited in publication PMC6281825.

pKd: −log10 of the molar value.

For the data set, the target named is Complement C5 (Homo sapiens) (UniProt P01031).

In general, pKd refers to −log10 of the Kd, conventionally taken in molar units. eculizumab: the pKd is 10.00.
